B1: Mineralocorticoid receptor, residues 600 to 675; numbered along this chain, P08235 (parent)
chain: SKICLVCGDEASGCHYGVVTCGSCKVFFKRAVEGQHNYLCAGRNDCIIDKIRRKNCPACRLQKCLQAGMNLGARKS

± gives the uncertainty stated by the source.

Experimental findings from the Human Domainome abundance scans (Beltran et al. 2025) are described below.

The variants in the data set derive from B1. As to the kind of experiment: abundance fitness (aPCA) (normalised: wild type 0, dead -1); higher = more abundant; growth selection in yeast, the domain comes from the species named. The conditions noted are these: Homo sapiens.
With SKICLVCGDEASGCHYGVVTCGSCKVFFKRAVEGQHNYLCAGRNDCIIDKIRRKNCPACRLQKCLQAGRNLGARKS, the abundance fitness is -0.421 ± 0.04.
As for SKICLVCGDEASGCHYGVVTCGSCKVFFKRAVEGQHNYLCAGRNDCIIDKIRRKNCPACRLQKCLQAGGNLGARKS, the figure is -0.235 ± 0.037; as for SKICLVCGDEASGCHYGVVTCGSCKVFFKRAVEGQHNYLCAGRNDCIIDKIRRKNCPACRLQKCLQAGSNLGARKS, -0.341 ± 0.059; as for SKICLVCGDEASGCHYGVVTCGSCKVFFKRAVEGQHNYLCAGRNDCIIDKIRRKNCPACRLQKCLQAGYNLGARKS, -0.493 ± 0.23.
As for SKICLVCGDEASGCHYGVVTCGSCKVFFKRAVEGQHNYLCAGRNDCIIDKIRRKNCPACRLQKCLQAGNNLGARKS, the figure is -0.523 ± 0.12.
As for SKICLVCGDEASGCHYGVVTCGSCKVFFKRAVEGQHNYLCAGRNDCIIDKIRRKNCPACRLQKCLQAGTNLGARKS, the figure is -0.353 ± 0.068.
SKICLVCGDEASGCHYGVVTCGSCKVFFKRAVEGQHNYLCAGRNDCIIDKIRRKNCPACRLQKCLQAGQNLGARKS: the abundance fitness was -0.262 ± 0.072.
The value for SKICLVCGDEASGCHYGVVTCGSCKVFFKRAVEGQHNYLCAGRNDCIIDKIRRKNCPACRLQKCLQAGHNLGARKS was -0.617 ± 0.14; that for SKICLVCGDEASGCHYGVVTCGSCKVFFKRAVEGQHNYLCAGRNDCIIDKIRRKNCPACRLQKCLQAGWNLGARKS was -0.427 ± 0.065.
As for SKICLVCGDEASGCHYGVVTCGSCKVFFKRAVEGQHNYLCAGRNDCIIDKIRRKNCPACRLQKCLQAGKNLGARKS, the figure is -0.261 ± 0.059.
On to SKICLVCGDEASGCHYGVVTCGSCKVFFKRAVEGQHNYLCAGRNDCIIDKIRRKNCPACRLQKCLQAGMCLGARKS, for which the abundance fitness was -0.154 ± 0.054.
As for SKICLVCGDEASGCHYGVVTCGSCKVFFKRAVEGQHNYLCAGRNDCIIDKIRRKNCPACRLQKCLQAGMSLGARKS, the figure is 0.034 ± 0.032; as for SKICLVCGDEASGCHYGVVTCGSCKVFFKRAVEGQHNYLCAGRNDCIIDKIRRKNCPACRLQKCLQAGMWLGARKS, -0.087 ± 0.057; as for SKICLVCGDEASGCHYGVVTCGSCKVFFKRAVEGQHNYLCAGRNDCIIDKIRRKNCPACRLQKCLQAGMQLGARKS, -0.019 ± 0.048.
The value for SKICLVCGDEASGCHYGVVTCGSCKVFFKRAVEGQHNYLCAGRNDCIIDKIRRKNCPACRLQKCLQAGMELGARKS was -0.035 ± 0.063; that for SKICLVCGDEASGCHYGVVTCGSCKVFFKRAVEGQHNYLCAGRNDCIIDKIRRKNCPACRLQKCLQAGMLLGARKS was -0.089 ± 0.044; that for SKICLVCGDEASGCHYGVVTCGSCKVFFKRAVEGQHNYLCAGRNDCIIDKIRRKNCPACRLQKCLQAGMPLGARKS was -0.021 ± 0.039.
The value for SKICLVCGDEASGCHYGVVTCGSCKVFFKRAVEGQHNYLCAGRNDCIIDKIRRKNCPACRLQKCLQAGMMLGARKS was -0.044 ± 0.09.
For SKICLVCGDEASGCHYGVVTCGSCKVFFKRAVEGQHNYLCAGRNDCIIDKIRRKNCPACRLQKCLQAGMVLGARKS, the abundance fitness was -0.011 ± 0.058.
The value for SKICLVCGDEASGCHYGVVTCGSCKVFFKRAVEGQHNYLCAGRNDCIIDKIRRKNCPACRLQKCLQAGMYLGARKS was -0.009 ± 0.04; that for SKICLVCGDEASGCHYGVVTCGSCKVFFKRAVEGQHNYLCAGRNDCIIDKIRRKNCPACRLQKCLQAGMFLGARKS was -0.07 ± 0.051; that for SKICLVCGDEASGCHYGVVTCGSCKVFFKRAVEGQHNYLCAGRNDCIIDKIRRKNCPACRLQKCLQAGMKLGARKS was 0.058 ± 0.059.
The value for SKICLVCGDEASGCHYGVVTCGSCKVFFKRAVEGQHNYLCAGRNDCIIDKIRRKNCPACRLQKCLQAGMDLGARKS was 0.014 ± 0.064; that for SKICLVCGDEASGCHYGVVTCGSCKVFFKRAVEGQHNYLCAGRNDCIIDKIRRKNCPACRLQKCLQAGMGLGARKS was -0.082 ± 0.064; that for SKICLVCGDEASGCHYGVVTCGSCKVFFKRAVEGQHNYLCAGRNDCIIDKIRRKNCPACRLQKCLQAGMILGARKS was -0.02 ± 0.069.
As for SKICLVCGDEASGCHYGVVTCGSCKVFFKRAVEGQHNYLCAGRNDCIIDKIRRKNCPACRLQKCLQAGMHLGARKS, the figure is -0.031 ± 0.041; as for SKICLVCGDEASGCHYGVVTCGSCKVFFKRAVEGQHNYLCAGRNDCIIDKIRRKNCPACRLQKCLQAGMTLGARKS, -0.04 ± 0.039; as for SKICLVCGDEASGCHYGVVTCGSCKVFFKRAVEGQHNYLCAGRNDCIIDKIRRKNCPACRLQKCLQAGMRLGARKS, -0.014 ± 0.044.
For the variant SKICLVCGDEASGCHYGVVTCGSCKVFFKRAVEGQHNYLCAGRNDCIIDKIRRKNCPACRLQKCLQAGMNLKARKS, the abundance fitness was -0.048 ± 0.061.
The value for SKICLVCGDEASGCHYGVVTCGSCKVFFKRAVEGQHNYLCAGRNDCIIDKIRRKNCPACRLQKCLQAGMNLRARKS was -0.065 ± 0.035; that for SKICLVCGDEASGCHYGVVTCGSCKVFFKRAVEGQHNYLCAGRNDCIIDKIRRKNCPACRLQKCLQAGMNLCARKS was 0 ± 0.047; that for SKICLVCGDEASGCHYGVVTCGSCKVFFKRAVEGQHNYLCAGRNDCIIDKIRRKNCPACRLQKCLQAGMNLEARKS was -0.036 ± 0.055.
The value for SKICLVCGDEASGCHYGVVTCGSCKVFFKRAVEGQHNYLCAGRNDCIIDKIRRKNCPACRLQKCLQAGMNLPARKS was 0.011 ± 0.06; that for SKICLVCGDEASGCHYGVVTCGSCKVFFKRAVEGQHNYLCAGRNDCIIDKIRRKNCPACRLQKCLQAGMNLDARKS was 0.029 ± 0.059.
In the case of SKICLVCGDEASGCHYGVVTCGSCKVFFKRAVEGQHNYLCAGRNDCIIDKIRRKNCPACRLQKCLQAGMNLQARKS, the abundance fitness is 0.053 ± 0.072.
As for SKICLVCGDEASGCHYGVVTCGSCKVFFKRAVEGQHNYLCAGRNDCIIDKIRRKNCPACRLQKCLQAGMNLYARKS, the figure is -0.074 ± 0.067; as for SKICLVCGDEASGCHYGVVTCGSCKVFFKRAVEGQHNYLCAGRNDCIIDKIRRKNCPACRLQKCLQAGMNLTARKS, -0.115 ± 0.053; as for SKICLVCGDEASGCHYGVVTCGSCKVFFKRAVEGQHNYLCAGRNDCIIDKIRRKNCPACRLQKCLQAGMNLIARKS, -0.02 ± 0.081.
The value for SKICLVCGDEASGCHYGVVTCGSCKVFFKRAVEGQHNYLCAGRNDCIIDKIRRKNCPACRLQKCLQAGMNLMARKS was -0.042 ± 0.052; that for SKICLVCGDEASGCHYGVVTCGSCKVFFKRAVEGQHNYLCAGRNDCIIDKIRRKNCPACRLQKCLQAGMNLFARKS was -0.134 ± 0.063.
The value for SKICLVCGDEASGCHYGVVTCGSCKVFFKRAVEGQHNYLCAGRNDCIIDKIRRKNCPACRLQKCLQAGMNLLARKS was -0.021 ± 0.037; that for SKICLVCGDEASGCHYGVVTCGSCKVFFKRAVEGQHNYLCAGRNDCIIDKIRRKNCPACRLQKCLQAGMNLSARKS was -0.009 ± 0.04.
Regarding SKICLVCGDEASGCHYGVVTCGSCKVFFKRAVEGQHNYLCAGRNDCIIDKIRRKNCPACRLQKCLQAGMNLHARKS, the abundance fitness was 0.032 ± 0.078.
The value for SKICLVCGDEASGCHYGVVTCGSCKVFFKRAVEGQHNYLCAGRNDCIIDKIRRKNCPACRLQKCLQAGMNLVARKS was 0.012 ± 0.036; that for SKICLVCGDEASGCHYGVVTCGSCKVFFKRAVEGQHNYLCAGRNDCIIDKIRRKNCPACRLQKCLQAGMNLWARKS was -0.124 ± 0.047; that for SKICLVCGDEASGCHYGVVTCGSCKVFFKRAVEGQHNYLCAGRNDCIIDKIRRKNCPACRLQKCLQAGMNLGARFS was -0.167 ± 0.16.
The value for SKICLVCGDEASGCHYGVVTCGSCKVFFKRAVEGQHNYLCAGRNDCIIDKIRRKNCPACRLQKCLQAGMNLGARCS was -0.038 ± 0.071; that for SKICLVCGDEASGCHYGVVTCGSCKVFFKRAVEGQHNYLCAGRNDCIIDKIRRKNCPACRLQKCLQAGMNLGARIS was -0.213 ± 0.11; that for SKICLVCGDEASGCHYGVVTCGSCKVFFKRAVEGQHNYLCAGRNDCIIDKIRRKNCPACRLQKCLQAGMNLGARHS was 0.077 ± 0.093.
The value for SKICLVCGDEASGCHYGVVTCGSCKVFFKRAVEGQHNYLCAGRNDCIIDKIRRKNCPACRLQKCLQAGMNLGARAS was 0.059 ± 0.052; that for SKICLVCGDEASGCHYGVVTCGSCKVFFKRAVEGQHNYLCAGRNDCIIDKIRRKNCPACRLQKCLQAGMNLGARES was 0.055 ± 0.049; that for SKICLVCGDEASGCHYGVVTCGSCKVFFKRAVEGQHNYLCAGRNDCIIDKIRRKNCPACRLQKCLQAGMNLGARDS was -0.057 ± 0.085.
Consider SKICLVCGDEASGCHYGVVTCGSCKVFFKRAVEGQHNYLCAGRNDCIIDKIRRKNCPACRLQKCLQAGMNLGARGS, for which the abundance fitness is -0.024 ± 0.039.
The value for SKICLVCGDEASGCHYGVVTCGSCKVFFKRAVEGQHNYLCAGRNDCIIDKIRRKNCPACRLQKCLQAGMNLGARLS was -0.056 ± 0.05.
The value for SKICLVCGDEASGCHYGVVTCGSCKVFFKRAVEGQHNYLCAGRNDCIIDKIRRKNCPACRLQKCLQAGMNLGAAKS was 0.027 ± 0.046; that for SKICLVCGDEASGCHYGVVTCGSCKVFFKRAVEGQHNYLCAGRNDCIIDKIRRKNCPACRLQKCLQAGMNLGADKS was -0.003 ± 0.07; that for SKICLVCGDEASGCHYGVVTCGSCKVFFKRAVEGQHNYLCAGRNDCIIDKIRRKNCPACRLQKCLQAGMNLGAEKS was 0.056 ± 0.05.
As for SKICLVCGDEASGCHYGVVTCGSCKVFFKRAVEGQHNYLCAGRNDCIIDKIRRKNCPACRLQKCLQAGMNLGASKS, the figure is -0.001 ± 0.04; as for SKICLVCGDEASGCHYGVVTCGSCKVFFKRAVEGQHNYLCAGRNDCIIDKIRRKNCPACRLQKCLQAGMNLGANKS, -0.011 ± 0.065.
As for SKICLVCGDEASGCHYGVVTCGSCKVFFKRAVEGQHNYLCAGRNDCIIDKIRRKNCPACRLQKCLQAGMNLGAPKS, the abundance fitness is -0.03 ± 0.055.
As for SKICLVCGDEASGCHYGVVTCGSCKVFFKRAVEGQHNYLCAGRNDCIIDKIRRKNCPACRLQKCLQAGMNLGALKS, the figure is -0.061 ± 0.044; as for SKICLVCGDEASGCHYGVVTCGSCKVFFKRAVEGQHNYLCAGRNDCIIDKIRRKNCPACRLQKCLQAGMNLGAYKS, -0.031 ± 0.069; as for SKICLVCGDEASGCHYGVVTCGSCKVFFKRAVEGQHNYLCAGRNDCIIDKIRRKNCPACRLQKCLQAGMNLGATKS, 0.138 ± 0.063.
As for SKICLVCGDEASGCHYGVVTCGSCKVFFKRAVEGQHNYLCAGRNDCIIDKIRRKNCPACRLQKCLQAGMNLGAQKS, the figure is -0.079 ± 0.057; as for SKICLVCGDEASGCHYGVVTCGSCKVFFKRAVEGQHNYLCAGRNDCIIDKIRRKNCPACRLQKCLQAGMNLGACKS, 0.005 ± 0.06.
As for SKICLVCGDEASGCHYGVVTCGSCKVFFKRAVEGQHNYLCAGRNDCIIDKIRRKNCPACRLQKCLQAGMNLGAVKS, the figure is 0.026 ± 0.038.
Turning to SKICLVCGDEASGCHYGVVTCGSCKVFFKRAVEGQHNYLCAGRNDCIIDKIRRKNCPACRLQKCLQAGMNLGAWKS, the abundance fitness was determined as 0 ± 0.046.
As for SKICLVCGDEASGCHYGVVTCGSCKVFFKRAVEGQHNYLCAGRNDCIIDKIRRKNCPACRLQKCLQAGMNLGAFKS, the figure is -0.088 ± 0.061; as for SKICLVCGDEASGCHYGVVTCGSCKVFFKRAVEGQHNYLCAGRNDCIIDKIRRKNCPACRLQKCLQAGMNLGAKKS, 0.02 ± 0.061; as for SKICLVCGDEASGCHYGVVTCGSCKVFFKRAVEGQHNYLCAGRNDCIIDKIRRKNCPACRLQKCLQAGMNLGAGKS, -0.022 ± 0.031.
The value for SKICLVCGDEASGCHYGVVTCGSCKVFFKRAVEGQHNYLCAGRNDCIIDKIRRKNCPACRLQKCLQAGMNLGAIKS was -0.042 ± 0.063.
The value for SKICLVCGDEASGCHYGVVTCGSCKVFFKRAVEGQHNYLCAGRNDCIIDKIRRKNCPACRLQKCLQAGMNLGAMKS was -0.015 ± 0.055.
